# Laboratory results from publication PMC6760278.
# B1: CUCAC probe (ssRNA)
# RNA: CUCACCUCACCUCACCUCACCUCACCUCAC
# Target: T1, OsNPPR1-repeat-MBP (Oryza sativa (rice), UniProt Q6Z2B6 182-806)
# T1 sequence: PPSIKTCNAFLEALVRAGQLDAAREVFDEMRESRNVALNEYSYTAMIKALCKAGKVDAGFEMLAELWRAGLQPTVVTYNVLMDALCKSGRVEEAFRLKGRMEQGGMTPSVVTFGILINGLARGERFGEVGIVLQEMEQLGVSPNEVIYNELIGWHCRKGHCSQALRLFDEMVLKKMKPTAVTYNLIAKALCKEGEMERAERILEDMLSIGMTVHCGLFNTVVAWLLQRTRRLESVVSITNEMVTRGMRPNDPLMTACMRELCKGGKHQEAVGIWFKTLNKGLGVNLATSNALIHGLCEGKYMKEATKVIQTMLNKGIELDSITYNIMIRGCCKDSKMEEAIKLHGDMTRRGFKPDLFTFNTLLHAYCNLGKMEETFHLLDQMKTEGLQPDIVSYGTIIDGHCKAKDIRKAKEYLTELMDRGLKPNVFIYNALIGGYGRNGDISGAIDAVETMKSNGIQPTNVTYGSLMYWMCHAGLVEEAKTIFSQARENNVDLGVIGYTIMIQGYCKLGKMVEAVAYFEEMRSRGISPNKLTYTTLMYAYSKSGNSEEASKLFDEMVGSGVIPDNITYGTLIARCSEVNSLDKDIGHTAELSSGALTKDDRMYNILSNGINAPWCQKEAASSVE
# Test: EMSA
binder,measurement,value
B1,binding result,binds
